According to patent publication WO2004074491A2 (dated 2004):

Biological target: T1, K88 pilus protein antigen (also known as the F4 fimbriae adhesin) (Escherichia coli (enterotoxigenic))
T1 construct: Used as ELISA coat and as the ligand amine-coupled to the CM5 SPR chip; also called K88 antigen; K88 pili
Assay: SPR (Biacore), K88 pili coupled to a CM5 chip, purified antibody as analyte

T1 sequence (P14190 22-283): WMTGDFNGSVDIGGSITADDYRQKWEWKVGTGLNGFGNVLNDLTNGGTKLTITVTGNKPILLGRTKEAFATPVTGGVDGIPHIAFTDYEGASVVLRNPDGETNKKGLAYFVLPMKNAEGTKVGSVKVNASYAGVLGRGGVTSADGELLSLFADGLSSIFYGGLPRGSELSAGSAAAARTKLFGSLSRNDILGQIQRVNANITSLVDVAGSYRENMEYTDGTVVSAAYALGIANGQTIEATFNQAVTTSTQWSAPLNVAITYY

B1: anti-K88 monoclonal IgG1 antibody 36/41 purified from hybridoma cells (antibody)
chain 1: EVQLQQSGPELVKTGASVKISCKASDYSLTDYYMHWVKQSHGESLEWIGYINFYNGATNYNQKFKGKATFTVDTSSSTVYMQFNSLTSEDSAVYYCVREALLRNYAMDYWGQGTSVTVSSAKTTPPSVYPLAPGSAAQTNSMVTLGCLVKGYFPEPVTVTWNSGSLSSGVHTFPAVLQSDLYTLSSSVTVPSSTWPSETVTCNVAHPASSTKVDKKIVPRDCGCKPCICTVPEVSSVFIFPPKPKDVLTITLTPKVTCVVVDISKDDPEVQFSWFVDDVEVHTAQTQPREEQFNSTFRSVSELPIMHQDWLNGKEFKCRVNSAAFPAPIEKTISKTKGRPKAPQVYTIPPPKEQMAKDKVSLTCMITDFFPEDITVEWQWNGQPAENYKNTQPIMDTDGSYFVYSKLNVQKSNWEAGNTFTCSVLHEGLHNHHTEKSLSHSPGK
chain 2: ENVLTQSPAIMSASPGEKVTMTCRASSSVSSRYLHWYQQKSGASPKLWIYSTSNLASGVPARFSGSGSGTSYSLTISSVEAEDAATYYCQQYSGYPWTFGGGTKLEIKRADAAPTVSIFPPSSEQLTSGGASVVCFLNNFYPKDINVKWKIDGSERQNGVLNSWTDQDSKDSTYSMSSTLTLTKDEYERHNSYTCEATHKTSTSPIVKSFNRNEC
With B1 the Kd was 0.03 nM.

B2: plant-produced anti-K88 antibody 36/41 with ER retention signal (corn, pTMR554) (antibody)
chain 1: EVQLQQSGPELVKTGASVKISCKASDYSLTDYYMHWVKQSHGESLEWIGYINFYNGATNYNQKFKGKATFTVDTSSSTVYMQFNSLTSEDSAVYYCVREALLRNYAMDYWGQGTSVTVSSAKTTPPSVYPLAPGSAAQTNSMVTLGCLVKGYFPEPVTVTWNSGSLSSGVHTFPAVLQSDLYTLSSSVTVPSSTWPSETVTCNVAHPASSTKVDKKIVPRDCGCKPCICTVPEVSSVFIFPPKPKDVLTITLTPKVTCVVVDISKDDPEVQFSWFVDDVEVHTAQTQPREEQFNSTFRSVSELPIMHQDWLNGKEFKCRVNSAAFPAPIEKTISKTKGRPKAPQVYTIPPPKEQMAKDKVSLTCMITDFFPEDITVEWQWNGQPAENYKNTQPIMDTDGSYFVYSKLNVQKSNWEAGNTFTCSVLHEGLHNHHTEKSLSHSPGKSEKDEL
chain 2: ENVLTQSPAIMSASPGEKVTMTCRASSSVSSRYLHWYQQKSGASPKLWIYSTSNLASGVPARFSGSGSGTSYSLTISSVEAEDAATYYCQQYSGYPWTFGGGTKLEIKRADAAPTVSIFPPSSEQLTSGGASVVCFLNNFYPKDINVKWKIDGSERQNGVLNSWTDQDSKDSTYSMSSTLTLTKDEYERHNSYTCEATHKTSTSPIVKSFNRNECSEKDEL
B2 showed a Kd of 0.03 nM.
